# T1: hnRNP H1 (recombinant) (UniProt P31943 1-449)
# T1 sequence: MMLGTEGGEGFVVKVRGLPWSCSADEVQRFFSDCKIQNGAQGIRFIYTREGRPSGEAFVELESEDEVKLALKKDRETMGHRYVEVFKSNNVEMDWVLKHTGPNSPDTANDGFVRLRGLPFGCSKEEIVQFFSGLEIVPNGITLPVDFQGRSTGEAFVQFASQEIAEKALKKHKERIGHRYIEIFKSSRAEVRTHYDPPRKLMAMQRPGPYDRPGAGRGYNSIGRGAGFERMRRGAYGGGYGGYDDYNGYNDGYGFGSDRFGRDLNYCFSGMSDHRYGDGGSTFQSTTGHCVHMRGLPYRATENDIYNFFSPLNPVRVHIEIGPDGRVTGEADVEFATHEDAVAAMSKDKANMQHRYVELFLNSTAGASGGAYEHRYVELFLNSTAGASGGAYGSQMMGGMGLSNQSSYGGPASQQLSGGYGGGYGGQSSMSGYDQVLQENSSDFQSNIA
# Target: T1, hnRNP H1 (recombinant)
# Test: EMSA; 30 nM tRNA; EMSA: 50 mM Tris pH 8, 50 mM NaCl, 2 mM EDTA, 0.5% BSA, 0.2% CHAPS, 0.3 nM RNA, 30 nM tRNA, 0-640 nM H1, 30 min 37 C, native 6% PAGE. UV crosslinking: ~1 nM RNA in U87 nuclear extract
# Conditions: protein: recombinant, (pRSET-C vector, Ni-NTA), label: 32P
Binder,"Kd (G-quadruplex, can be intramolecular)",Kd (G-quadruplex destabilized)
GGGGCCGGGGCCGGGGCCGGGGCC (structured_RNA) [4R],75.5 ± 14 nM,–
"GGGGCCGGGGCCGGGGCCGGGGCC (ssRNA, all G replaced by 7-deaza-G (transcribed with 7-deaza-GTP)) [4R-7dG]",–,13.5 ± 3 nM

# Source: paper PMC5050020, “The C9ORF72 GGGGCC expansion forms RNA G-quadruplex inclusions and sequesters hnRNP H to disrupt splicing in ALS brains”
